What follows are binders tested against T1, HLA-A*0211 (purified recombinant HLA-A*0211 heavy chain with beta-2 microglobulin) (human) (assay: ELISA-based refolding assay: recombinant HLA-A*0211 heavy chain + b2m + graded doses of peptide).
T1 construct: MHC class I molecule without peptide; folds with b2m in a peptide-dependent manner, and folded complex is measured by ELISA
LKLDRERAKN [BIR-13 (C-terminal decamer of BIR-004: LKLDRERAKN)]: binds.
KLDRERAKN (also called nonamer BIR-11) [BIR-11 (C-terminal nonamer of BIR-004: KLDRERAKN)]: binds.
LDRERAKN [BIR-12 (C-terminal octamer of BIR-004: LDRERAKN)]: no binding.

Reference: patent US20200078439A1 (IMMATICS BIOTECHNOLOGIES, published 2020)
